This assay has as its target recombinant TpiA (triosephosphate isomerase of Streptococcus pneumoniae D39) (S. pneumoniae D39) (UniProt P66943). The experiment in a line: SPR; Biacore X100; rTpiA amine-coupled on a CM5 chip; plasminogen, laminin and BSA injected at 3.125 to 50 nM, contact time 120 s, 20 µL/min; 100 mM HEPES pH 7.4, 150 mM NaCl, 3 mM EDTA, 0.005% surfactant P20; apparent constants. For orientation: SPR reads the build-up and loss of mass on a sensor chip optically.
UniProt P66943, sequence (P66943 2-252): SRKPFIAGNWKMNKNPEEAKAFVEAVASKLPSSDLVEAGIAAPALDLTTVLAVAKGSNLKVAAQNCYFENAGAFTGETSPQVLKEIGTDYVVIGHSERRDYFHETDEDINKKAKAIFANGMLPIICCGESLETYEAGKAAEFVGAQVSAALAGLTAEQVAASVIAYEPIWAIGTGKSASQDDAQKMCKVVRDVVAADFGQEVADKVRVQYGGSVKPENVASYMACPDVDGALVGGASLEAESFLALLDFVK

As to “plasminogen from human plasma (natural protein)”, the Kd turned out to be 411 nM, the off-rate constant (koff) turned out to be 0.00553 s⁻¹ and the kon was determined as 13400 M⁻¹ s⁻¹.

For orientation: koff means the first-order rate constant of dissociation. In general, kon refers to the second-order rate constant of association.

Values taken from PMC9157410.
